Reference: paper PMC6522968

Molecular target: Glu387 (UniProt position 387, YMYVTENGIAD)
Assay: kinetics
Conditions: 65 °C; 50.0 mM sodium citrate (pH 3.0–5.6), sodium phosphate (pH 6.0–8.0) and KCl/borate (pH 8.0–10.0); enzyme-substrate complex with 4Np-Glc, as described by the authors; folded, active enzyme

beta-glycosidase (Ssβ-gly) (Sulfolobus solfataricus (Saccharolobus solfataricus))
pKa: 3.41 ± 0.13

beta-glycosidase (Ssβ-gly) H150A mutant (A150) (Sulfolobus solfataricus (Saccharolobus solfataricus); H150A)
pKa: 5.29 ± 0.18
